From the Immune Epitope Database (IEDB)
pKd: −log10 of the molar value.

How the values were obtained:
HLA-B*07:02 = assay: IEDB peptide-MHC binding, purified MHC/competitive/radioactivity; filed as Kd, often an IC50 or EC50 that approximates it; ≥ and ≤ were set here for values at or beyond the usual limits of such assays
HLA-B*35:01 = assay: as above
HLA-B*51:01 [1] = assay: as above
HLA-B*53:01 = assay: as above
HLA-B*54:01 = assay: as above
HLA-A*02:01 [2] = assay: as above
HLA-A*02:06 = assay: as above
HLA-A*68:02 = assay: as above
HLA-A*03:01 [3] = assay: as above
HLA-A*11:01 = assay: as above
HLA-A*31:01 = assay: as above
HLA-A*33:01 = assay: as above
HLA-A*68:01 = assay: as above
HLA-A*02:02 = assay: as above
HLA-A*02:03 = assay: as above
HLA-A*01:01 = assay: as above; conditions: source organism: SARS coronavirus Tor2
HLA-A*23:01 = assay: as above; conditions: source organism: SARS coronavirus Tor2
HLA-A*24:02 = assay: as above; conditions: source organism: SARS coronavirus Tor2
HLA-A*26:01 [4] = assay: as above; conditions: source organism: SARS coronavirus Tor2
HLA-A*29:02 = assay: as above; conditions: source organism: SARS coronavirus Tor2
HLA-A*30:02 = assay: as above; conditions: source organism: SARS coronavirus Tor2
HLA-B*18:01 [5] = assay: as above; conditions: source organism: SARS coronavirus Tor2
HLA-B*40:01 = assay: as above; conditions: source organism: SARS coronavirus Tor2
HLA-B*40:02 = assay: as above; conditions: source organism: SARS coronavirus Tor2
HLA-B*44:02 = assay: as above; conditions: source organism: SARS coronavirus Tor2
HLA-B*44:03 = assay: as above; conditions: source organism: SARS coronavirus Tor2
HLA-B*45:01 = assay: as above; conditions: source organism: SARS coronavirus Tor2
HLA-A*02:01 [6] = assay: IEDB peptide-MHC binding, purified MHC/direct/fluorescence; filed as Kd, often an IC50 or EC50 that approximates it; ≥ and ≤ were set here for values at or beyond the usual limits of such assays; conditions: source organism: Orthohantavirus andesense
HLA-A*03:01 [7] = assay: as above; conditions: source organism: Orthohantavirus tulaense
HLA-A*26:01 [8] = assay: IEDB peptide-MHC binding, purified MHC/competitive/fluorescence; filed as Kd, often an IC50 or EC50 that approximates it; ≥ and ≤ were set here for values at or beyond the usual limits of such assays; conditions: source organism: Orthohantavirus tulaense
HLA-B*15:01 = assay: as above; conditions: source organism: Orthohantavirus tulaense
HLA-B*18:01 [9] = assay: as above; conditions: source organism: Orthohantavirus tulaense
HLA-B*27:03 = assay: as above; conditions: source organism: Orthohantavirus tulaense
HLA-B*51:01 [10] = assay: as above; conditions: source organism: Orthohantavirus tulaense
HLA-B*57:01 = assay: as above; conditions: source organism: Orthohantavirus tulaense
[11] = source organism: SARS coronavirus Tor2
[12] = source organism: Mammarenavirus guanaritoense
[13] = source organism: Vaccinia virus Copenhagen
[14] = source organism: Trypanosoma cruzi
[15] = source organism: Triticum aestivum
[16] = source organism: Vaccinia virus WR
[17] = source organism: Mammarenavirus machupoense

For APAHVSTIGV, the pKd (HLA-B*07:02; [11]) was 7.46, the pKd (HLA-B*35:01; [11]) was 4.98 and the pKd (HLA-B*51:01 [1]; [11]) was 4.90. The pKd (HLA-B*53:01; [11]) was 4.77 and the pKd (HLA-B*54:01; [11]) was 5.51.
CPMCCSKIL gave a pKd (HLA-B*07:02; [12]) of 7.66, a pKd (HLA-B*35:01; [12]) of 7.74 and a pKd (HLA-B*51:01 [1]; [12]) of 6.74. It also gave a pKd (HLA-B*53:01; [12]) of 7.20 and a pKd (HLA-B*54:01; [12]) of 6.81.
For ELRSKREQEV, the pKd (HLA-A*02:01 [2]; source organism: Homo sapiens) was 4.73, the pKd (HLA-A*02:06; source organism: Homo sapiens) was ≤ 4.14 and the pKd (HLA-A*68:02; source organism: Homo sapiens) was 5.60.
EMRQKHSQAV was tested, and the pKd (HLA-A*02:01 [2]; source organism: Homo sapiens) was ≤ 4.47, the pKd (HLA-A*02:06; source organism: Homo sapiens) was ≤ 4.14 and the pKd (HLA-A*68:02; source organism: Homo sapiens) was 6.29.
Work on FILGIIITV yielded a pKd (HLA-A*03:01 [3]; [13]) of 5.82, a pKd (HLA-A*11:01; [13]) of 4.71 and a pKd (HLA-A*31:01; [13]) of 5.93. For the same sequence, the pKd (HLA-A*33:01; [13]) was 5.35, the pKd (HLA-A*68:01; [13]) was 5.49 and the pKd (HLA-B*07:02; [13]) was ≤ 4.49. For the same sequence, the pKd (HLA-B*35:01; [13]) was ≤ 4.40, the pKd (HLA-B*51:01 [1]; [13]) was ≤ 4.16 and the pKd (HLA-B*53:01; [13]) was 5.26. It also gave a pKd (HLA-B*54:01; [13]) of 5.48.
Sequence FLPSDFFPSA has a pKd (HLA-A*02:01 [2]; source organism: Hepatitis B virus) of 7.64.
For GLLPLFLLLG, the pKd (HLA-A*02:01 [2]; [14]) was 9.81, the pKd (HLA-A*02:02; [14]) was 7.54 and the pKd (HLA-A*02:03; [14]) was 6.86. It also gave a pKd (HLA-A*02:06; [14]) of 7.74 and a pKd (HLA-A*68:02; [14]) of 5.12.
For IPEQSRCQAI, the pKd (HLA-B*07:02; [15]) was 7.84, the pKd (HLA-B*35:01; [15]) was 6.28 and the pKd (HLA-B*51:01 [1]; [15]) was 6.61. For the same sequence, the pKd (HLA-B*53:01; [15]) was 6.28 and the pKd (HLA-B*54:01; [15]) was ≤ 4.49.
With KPAMSTYSDI the pKd (HLA-B*07:02; [16]) was 6.79, the pKd (HLA-B*35:01; [16]) was ≤ 4.20 and the pKd (HLA-B*51:01 [1]; [16]) was 4.85. The pKd (HLA-B*53:01; [16]) was 5.05 and the pKd (HLA-B*54:01; [16]) was 5.01.
With KPDGSDSMDV the pKd (HLA-B*07:02; [16]) was 6.61, the pKd (HLA-B*35:01; [16]) was ≤ 4.16 and the pKd (HLA-B*51:01 [1]; [16]) was ≤ 4.16. For the same sequence, the pKd (HLA-B*53:01; [16]) was ≤ 4.16 and the pKd (HLA-B*54:01; [16]) was ≤ 4.16.
With KPDHDGNTPL the pKd (HLA-B*07:02; [16]) was 7.51, the pKd (HLA-B*35:01; [16]) was 5.48 and the pKd (HLA-B*51:01 [1]; [16]) was ≤ 4.16. For the same sequence, the pKd (HLA-B*53:01; [16]) was 5.15 and the pKd (HLA-B*54:01; [16]) was ≤ 4.39.
In the case of KPKPAVRYAI, the pKd (HLA-B*07:02; source organism: Variola virus) was 8.33, the pKd (HLA-B*35:01; source organism: Variola virus) was ≤ 4.16 and the pKd (HLA-B*51:01 [1]; source organism: Variola virus) was ≤ 4.16. The pKd (HLA-B*53:01; source organism: Variola virus) was ≤ 4.16 and the pKd (HLA-B*54:01; source organism: Variola virus) was 4.90.
In the case of LMIFISSFLL, the pKd (HLA-A*02:02; [16]) was 8.53, the pKd (HLA-A*02:03; [16]) was 7.10 and the pKd (HLA-A*02:06; [16]) was 7.12. It also gave a pKd (HLA-A*03:01 [3]; [16]) of 6.38, a pKd (HLA-A*11:01; [16]) of 5.92 and a pKd (HLA-A*31:01; [16]) of 6.55. It also gave a pKd (HLA-A*33:01; [16]) of 6.15, a pKd (HLA-A*68:01; [16]) of 6.55 and a pKd (HLA-A*68:02; [16]) of 7.13. The pKd (HLA-B*07:02; [16]) was ≤ 4.57, the pKd (HLA-B*35:01; [16]) was ≤ 4.68 and the pKd (HLA-B*51:01 [1]; [16]) was 5.80. For the same sequence, the pKd (HLA-B*53:01; [16]) was 6.01 and the pKd (HLA-B*54:01; [16]) was 5.49.
With LPNVDLTTM the pKd (HLA-B*07:02; [16]) was 7.26, the pKd (HLA-B*35:01; [16]) was 9.80 and the pKd (HLA-B*51:01 [1]; [16]) was 7.21. The pKd (HLA-B*53:01; [16]) was 9.65 and the pKd (HLA-B*54:01; [16]) was 6.14.
LTDLGLIYTA was tested, and the pKd (HLA-A*02:01 [2]; source organism: Lassa virus GA391) was 6.05.
LTVILGVLL was tested, and the pKd (HLA-A*02:01 [2]; source organism: Homo sapiens) was 5.58.
With LVVDFSQFSR the pKd (HLA-A*02:01 [2]; source organism: Hepatitis B virus subtype adw2) was ≤ 4.46.
MEAQFLYLY gave a pKd (HLA-A*01:01) of 5.80, a pKd (HLA-A*23:01) of 4.77 and a pKd (HLA-A*24:02) of 5.02. For the same sequence, the pKd (HLA-A*26:01 [4]) was 5.71, the pKd (HLA-A*29:02) was 8.22 and the pKd (HLA-A*30:02) was 7.93. For the same sequence, the pKd (HLA-B*18:01 [5]) was 9.53, the pKd (HLA-B*40:01) was 5.73 and the pKd (HLA-B*40:02) was 5.65. It also gave a pKd (HLA-B*44:02) of 8.67, a pKd (HLA-B*44:03) of 9.03 and a pKd (HLA-B*45:01) of 7.91.
NPDQNTFPNI was tested, and the pKd (HLA-B*07:02; [16]) was ≤ 4.16, the pKd (HLA-B*35:01; [16]) was ≤ 4.16 and the pKd (HLA-B*51:01 [1]; [16]) was ≤ 4.47. The pKd (HLA-B*53:01; [16]) was 5.43 and the pKd (HLA-B*54:01; [16]) was ≤ 4.16.
Sequence NPIQLSSYSL has a pKd (HLA-B*07:02; [11]) of 6.38, a pKd (HLA-B*35:01; [11]) of 6.40 and a pKd (HLA-B*51:01 [1]; [11]) of 6.61. The pKd (HLA-B*53:01; [11]) was 6.27 and the pKd (HLA-B*54:01; [11]) was 5.75.
In the case of QPYLQLQPF, the pKd (HLA-B*07:02; [15]) was 6.83, the pKd (HLA-B*35:01; [15]) was 8.21 and the pKd (HLA-B*51:01 [1]; [15]) was 7.00. For the same sequence, the pKd (HLA-B*53:01; [15]) was 6.32 and the pKd (HLA-B*54:01; [15]) was 4.96.
In the case of RPPLNRNYV, the pKd (HLA-B*07:02; [11]) was 7.21, the pKd (HLA-B*35:01; [11]) was ≤ 4.67 and the pKd (HLA-B*51:01 [1]; [11]) was 4.99. For the same sequence, the pKd (HLA-B*53:01; [11]) was ≤ 4.11 and the pKd (HLA-B*54:01; [11]) was 6.18.
For SLFGAAVSL, the pKd (HLA-A*02:01 [6]) was ≥ 10.00, the pKd (HLA-A*03:01 [7]) was ≤ 4.70 and the pKd (HLA-A*26:01 [8]) was ≤ 4.70. For the same sequence, the pKd (HLA-B*15:01) was 7.30, the pKd (HLA-B*18:01 [9]) was ≤ 4.70 and the pKd (HLA-B*27:03) was ≤ 4.70. The pKd (HLA-B*51:01 [10]) was ≤ 4.70 and the pKd (HLA-B*57:01) was ≤ 4.70.
In the case of SLHVGTQCA, the pKd (HLA-A*02:01 [2]; source organism: Homo sapiens) was 5.84.
SLRVLAAGL was tested, and the pKd (HLA-A*02:01 [2]; source organism: Homo sapiens) was ≤ 4.30.
SPAHLINKLL was tested, and the pKd (HLA-B*07:02; [16]) was 7.58, the pKd (HLA-B*35:01; [16]) was ≤ 4.29 and the pKd (HLA-B*51:01 [1]; [16]) was 5.27. For the same sequence, the pKd (HLA-B*53:01; [16]) was 5.16 and the pKd (HLA-B*54:01; [16]) was 5.53.
In the case of SPGEIKPKF, the pKd (HLA-B*07:02; [16]) was 7.10, the pKd (HLA-B*35:01; [16]) was 5.07 and the pKd (HLA-B*51:01 [1]; [16]) was ≤ 4.15. The pKd (HLA-B*53:01; [16]) was 6.76 and the pKd (HLA-B*54:01; [16]) was ≤ 4.29.
With VPINVAEAY the pKd (HLA-B*07:02; [17]) was 4.86, the pKd (HLA-B*35:01; [17]) was 8.20 and the pKd (HLA-B*51:01 [1]; [17]) was ≤ 4.24. For the same sequence, the pKd (HLA-B*53:01; [17]) was 6.69 and the pKd (HLA-B*54:01; [17]) was ≤ 4.30.
For VPTNDHIPVV, the pKd (HLA-B*07:02; [16]) was 6.77, the pKd (HLA-B*35:01; [16]) was 4.97 and the pKd (HLA-B*51:01 [1]; [16]) was 7.29. It also gave a pKd (HLA-B*53:01; [16]) of 4.92 and a pKd (HLA-B*54:01; [16]) of 9.18.
